Assay results taken from patent US20230203146A1 (Boehringer Ingelheim, published 2023).
Positions count from the first letter of the chain named. Where two headings read alike, the source gives them in different places. Blank lines part the entries; values can stand above or below the binder they belong to.

Experiments:
[1] = target: T1, FLAG-tagged recombinant human Ang1 (Alexis Biochemicals) (human, UniProt Q15389 20-498, limits assumed); assay: competition ELISA, periplasmic extract, FLAG-hAng1 on hTie2/Fc
T1 construct: Bought reagent; also called hAng1; FLAG-hAng1
T1 sequence (looked up): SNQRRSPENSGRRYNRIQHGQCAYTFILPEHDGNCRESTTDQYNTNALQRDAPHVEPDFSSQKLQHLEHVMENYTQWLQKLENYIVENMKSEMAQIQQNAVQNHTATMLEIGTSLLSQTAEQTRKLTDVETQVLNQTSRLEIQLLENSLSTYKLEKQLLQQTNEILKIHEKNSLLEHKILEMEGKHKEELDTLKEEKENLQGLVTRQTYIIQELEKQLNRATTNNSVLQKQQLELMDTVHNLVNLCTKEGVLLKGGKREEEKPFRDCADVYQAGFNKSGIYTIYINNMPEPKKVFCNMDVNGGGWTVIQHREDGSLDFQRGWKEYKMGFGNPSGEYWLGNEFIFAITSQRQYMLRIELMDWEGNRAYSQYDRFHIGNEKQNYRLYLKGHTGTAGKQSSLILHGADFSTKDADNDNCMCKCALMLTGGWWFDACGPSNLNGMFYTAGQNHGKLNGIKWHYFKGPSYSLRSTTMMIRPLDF
Protocol: In brief, human Tie2/Fc chimera (R&D Systems, Minneapolis, Minn., USA) is biotinylated using N-hydroxysulfosuccinimide ester of biotin (Thermo Fisher Scientific, Rockford, Ill., USA). […] To this mixture, the Acceptor beads and 0.3 nM biotinylated human Tie2/Fc chimeras are added and further incubated for 2 hours at room temperature. Finally, streptavidin conjugated Donor beads (Perkin Elmer, Waltham, Mass., US) are added and the mixture is incubated for an additional 2 hours at room temperature. Assay buffer is PBS+0.03% Tween-20+0.1% BSA. Fluorescence is measured using the Envision Multilabel Plate reader (Perkin Elmer, Waltham, Mass., USA) using an excitation wavelength of 680 nm and an emission wavelength of 520 nm. […] In brief, human or mouse Tie2/Fc chimera (R&D Systems, Minneapolis, Minn., USA) are immobilized at 2 μg/mL overnight at 4° C. in a 96-well MaxiSorp plate (Nunc, Wiesbaden, Germany). Wells are blocked with a 1% casein solution. […] This mixture is added to the Tie2/Fc coated well and incubated for 2 hours at room temperature. Residual binding of Ang is detected using HRP-conjugated anti-FLAG M2 antibody (Sigma, St Louis, Mo., USA).

[2] = target: T2, recombinant mouse Ang2-FLD (mouse, UniProt O35608 275-496, limits assumed); assay: SPR (Biacore T100), VHH immobilized, Ang2-FLD injected
T2 construct: domain: FLD
T2 sequence (looked up): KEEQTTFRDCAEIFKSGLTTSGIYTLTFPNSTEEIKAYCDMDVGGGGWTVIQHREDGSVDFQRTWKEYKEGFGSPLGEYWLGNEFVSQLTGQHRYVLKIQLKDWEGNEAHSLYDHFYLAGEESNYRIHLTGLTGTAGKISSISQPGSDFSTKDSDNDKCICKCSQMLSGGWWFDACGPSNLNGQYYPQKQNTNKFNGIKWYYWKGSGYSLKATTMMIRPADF
Protocol: (§1) In brief, VHH and benchmark compounds are immobilized on a CM5 chip via amine coupling. […] Ang2-FLD species are allowed to associate for 2 min and to dissociate for 20 min at a flow rate of 45 μL/min. In between injections, the surfaces are regenerated with a 10 sec pulse of 25 mM NaOH and 60 sec stabilization period. Association/dissociation data are evaluated by fitting a 1:1 interaction model (Langmuir binding). The affinity constant KD is calculated from resulting association and dissociation rate constants kₐ and kd and are depicted in Table 8.

[3] = target: T3, recombinant rat Ang2-FLD (rat, UniProt O35462 275-496, limits assumed); assay: as above
T3 construct: domain: FLD
T3 sequence (looked up): T2 sequence (looked up) with Q4K, I35V, V43M, G91S, Q92G, N107S, D114E, A119S, S168T
Protocol: as §1

[4] = target: T4, recombinant human Ang2-FLD (human, UniProt O15123 275-496, limits assumed); assay: as above
T4 construct: domain: FLD
T4 sequence (looked up): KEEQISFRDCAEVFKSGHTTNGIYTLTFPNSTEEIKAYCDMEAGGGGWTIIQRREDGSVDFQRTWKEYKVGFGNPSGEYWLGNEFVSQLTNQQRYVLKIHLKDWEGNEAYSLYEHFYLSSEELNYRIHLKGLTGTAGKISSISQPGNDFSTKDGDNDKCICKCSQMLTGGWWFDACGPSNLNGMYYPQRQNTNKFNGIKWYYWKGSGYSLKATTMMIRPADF
Protocol: as §1

[5] = target: T5, recombinant cynomolgus Ang2-FLD (cynomolgus, UniProt A0A2K5VNX6 275-496); assay: as above
T5 construct: domain: FLD; also called cyno Ang2-FLD
T5 sequence: T4 sequence (looked up) with E2G, I23V, F28L, I35V, G154A, A212G, D221G
Protocol: as §1

[6] = target: T6, FLAG-tagged mouse Ang2 (mouse, UniProt O35608 19-496); assay: competition ELISA: FLAG-mAng2 binding to coated mTie2-Fc
T6 construct: N-terminally FLAG-tagged, conditioned medium of HEK293T cells; also called mAng2; FLAG-mAng2
T6 sequence: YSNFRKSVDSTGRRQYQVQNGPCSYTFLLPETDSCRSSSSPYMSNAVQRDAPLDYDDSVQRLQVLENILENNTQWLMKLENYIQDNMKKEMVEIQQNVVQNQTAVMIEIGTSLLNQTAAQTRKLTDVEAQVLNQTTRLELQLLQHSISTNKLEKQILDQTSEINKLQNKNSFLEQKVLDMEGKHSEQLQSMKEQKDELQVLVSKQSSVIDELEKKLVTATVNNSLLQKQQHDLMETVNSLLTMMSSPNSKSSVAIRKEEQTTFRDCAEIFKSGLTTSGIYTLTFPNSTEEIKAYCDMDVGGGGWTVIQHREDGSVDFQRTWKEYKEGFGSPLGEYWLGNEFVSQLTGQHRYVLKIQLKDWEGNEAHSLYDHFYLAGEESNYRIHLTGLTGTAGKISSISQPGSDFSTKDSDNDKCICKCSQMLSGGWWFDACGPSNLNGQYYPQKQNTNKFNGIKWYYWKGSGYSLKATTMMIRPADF
Protocol: (§2) In brief, 2 μg/mL of recombinant mouse Tie2-Fc or cyno Tie2-Fc is coated overnight at 4° C. in a 96-well MaxiSorp plate (Nunc, Wiesbaden, Germany). Coated wells are blocked with a 1% casein solution.

[7] = target: T7, FLAG-tagged cynomolgus Ang2 (cynomolgus, UniProt O15123 19-496 (human entry), limits assumed); assay: competition ELISA: FLAG-cAng2 binding to coated cTie2-Fc
T7 construct: N-terminally FLAG-tagged, conditioned medium of HEK293T cells; also called cAng2; FLAG-cAng2
T7 chain: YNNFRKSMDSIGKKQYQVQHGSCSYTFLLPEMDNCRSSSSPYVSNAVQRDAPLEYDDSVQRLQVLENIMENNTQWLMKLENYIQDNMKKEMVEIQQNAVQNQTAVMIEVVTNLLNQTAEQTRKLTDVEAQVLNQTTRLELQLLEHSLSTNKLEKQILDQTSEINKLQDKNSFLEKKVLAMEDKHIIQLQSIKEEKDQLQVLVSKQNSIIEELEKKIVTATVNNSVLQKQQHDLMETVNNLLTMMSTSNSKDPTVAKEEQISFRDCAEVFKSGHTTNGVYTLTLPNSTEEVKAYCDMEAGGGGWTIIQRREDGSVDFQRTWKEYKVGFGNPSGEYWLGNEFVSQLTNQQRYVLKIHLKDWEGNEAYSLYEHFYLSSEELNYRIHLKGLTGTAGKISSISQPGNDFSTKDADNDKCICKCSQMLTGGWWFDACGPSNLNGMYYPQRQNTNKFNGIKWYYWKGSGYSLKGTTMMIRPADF
Protocol: as §2

[8] = target: T7, FLAG-tagged cynomolgus Ang2; assay: as above
Protocol: as §2

[9] = target: T6, FLAG-tagged mouse Ang2; assay: competition ELISA: FLAG-mAng2 binding to coated mTie2-Fc; remark: listed apart in the source
Protocol: as §2

- % inh [1]: 3%
B1: VHH 12A08 (VHH)
VHH: EVQLVESGRGLVQAGGSLRLSCAASGSIFSINAMLWYRQAPGKQRELVAAITSGGSTNYADSVKGRFTISRDNAKNTVYLQMNSLKPEDTAVYYCAADSDYSSDYYYWGQGTQVTVSS
notes: Tested as periplasmic extract; also called 012A08; not shown: C-terminal c-myc tag and His6 tag

- % inh [1]: 4%
B2: VHH 25B01 (VHH)
VHH: EVQLVESGGGLVQAGGSLRLSCAASGFTFDDYAIGWFRQAPGKEREGVSCISSSDGSTYYADSVKGRFTISSDNAKNTVYLQMNSLKPEDTAVYYCAAAWGASRLPIGTMPPYEYDYWGQGTQVTVSS
notes: Tested as periplasmic extract; also called 025B01; not shown: C-terminal c-myc tag and His6 tag

- Kd [2]: 7.5 nM
- koff [2]: 0.025 s⁻¹
- kon [2]: 3.3e+06 M⁻¹ s⁻¹
- Kd [3]: 42 nM
- koff [3]: 0.049 s⁻¹
- kon [3]: 1.2e+06 M⁻¹ s⁻¹
- Kd [4]: 6.6 nM
- koff [4]: 0.027 s⁻¹
- kon [4]: 4e+06 M⁻¹ s⁻¹
- Kd [5]: 2.3 nM
- koff [5]: 0.025 s⁻¹
- kon [5]: 1.1e+07 M⁻¹ s⁻¹
- IC50 [6]: 27 nM
- IC50 [7]: 37 nM
B3: VHH 00921 (VHH, not shown: small tags and cut ends)
VHH: EVQLVESGGGLVQPGGSLRLSCAASGFTFDDYALGWFRQAPGKEREGVSCIRCSGGSTYYADSVKGRFTISSDNSKNTVYLQMNSLRPEDTAVYYCAASIVPRSKLEPYEYDAWGQGTLVTVSS

- % inh [1]: 4%
B4: VHH 1E01 (VHH)
VHH: EVQLVESGGGLVQPGGSLRLSCVHSGTISSTHAMGWYRQAPGKQREHVATFTNRGSTYYAGSVKGRFTISRDNAKNTMYLQMNSLKPEDTAVYYCNTGPYWGQGTQVTVSS
notes: Tested as periplasmic extract; also called 001E01; not shown: C-terminal c-myc tag and His6 tag

- Kd [2]: 0.17 nM
- koff [2]: 7.3e-05 s⁻¹
- kon [2]: 420000 M⁻¹ s⁻¹
- Kd [3]: 0.29 nM
- koff [3]: 5.4e-05 s⁻¹
- kon [3]: 180000 M⁻¹ s⁻¹
- Kd [4]: 0.064 nM
- koff [4]: 4e-05 s⁻¹
- kon [4]: 620000 M⁻¹ s⁻¹
- Kd [5]: 0.05 nM
- koff [5]: 4.9e-05 s⁻¹
- kon [5]: 970000 M⁻¹ s⁻¹
- IC50 [8]: 0.39 nM
- IC50 [9]: 0.2 nM
B5: VHH 00928 (VHH, not shown: small tags and cut ends)
VHH: EVQLVESGGGLVQPGGSLRLSCAASGFALDYYAIGWFRQAPGKEREGVSCISSSGGITYYADSVKGRFTISRDNSKNTVYLQMNSLRPEDTAVYYCATDSGGYIDYDCSGLGYDYWGQGTLVTVSS
